The experiment addresses TPO receptor (TPOR). The experiment in a line: cell-based or functional assay.

“Human TPO synthetic protein (rhTPO) (from UniProt P40225 22-353) (ligand)” displayed an EC50 of relative cell proliferation of BaF3/MPL cells (Cell Titer-Glo, 48 h) of 1.7 ng/mL.

For the origin of these results see patent EP4644412A1.
